# Laboratory results taken from PMC2577326.
# Target: PspGI-D138A selenomethionine variant (Pyrococcus GI-H)
# Experiment: crystal structure
substance,measurement,value
PspGI-D138A selenomethionine variant (enzyme),stoichiometry N,2
